No end group written: not given here.
How the values were obtained:
[1] = mouse, in vivo, iv
Method: (§1) Plasma Elimination Studies--This procedure has been described in detail elsewhere. […] In brief, approximately 1.0 μg of radioiodinated protein or peptide was injected into the lateral tail vein of CD-1 mice. Blood samples of 25 μl were collected at timed intervals via retroorbital puncture. The initial time point, taken 5-10 seconds after injection, was considered to represent 100% radioactivity in circulation. Each preparation was studied at least in triplicate.

[2] = Plasma elimination studies in CD-1 mice (radioiodinated protein or peptide injected into the lateral tail vein)
Method: as §1

[3] = Tissue distribution of radioactivity in organs after the plasma elimination experiments (γ-counter); format: in vivo; conditions: mouse, after plasma elimination experiment; FIG. 5
Text: Each preparation was studied at least in triplicate.
Following the plasma elimination experiments the organs of the test mice were examined for radioactivity using a γ-counter.

Ala-Pro-Leu-Ile-Leu-Ser-Arg (APLILSR; not fully specified; printed as Ala-Pro-Leu-Ile-Leu-Ser-Arg) [activation peptide]
effect of excess unlabelled activation peptide on clearance rate / half-life [1]: not significantly affected
plasma elimination half-life of the peptide [1]: less than 2 minutes

^125 I-α1 -ACT.cndot.PSA complexes: complex of prostate specific antigen with the protease inhibitor α1-antichymotrypsin
half-life of removal from the mouse circulation ([2]; i.v. lateral tail vein, labelled complex injected alone): approximately 20 minutes
half life in mouse circulation on coinjection with excess unlabeled complex ([2]; i.v., coinjected with a large excess of unlabeled α1-ACT·PSA complexes): several hours
half life of complex compared to native α1-ACT ([2]; mouse, i.v., FIG. 3): significantly reduced

B1: ^125 I-α1 -ACT: α1-antichymotrypsin, purified as previously described (Salvesen et al.) (protein, UniProt P01011 24-423, looked up)
Alpha-1-antichymotrypsin: HPNSPLDEENLTQENQDRGTHVDLGLASANVDFAFSLYKQLVLKAPDKNVIFSPLSISTALAFLSLGAHNTTLTEILKGLKFNLTETSEAEIHQSFQHLLRTLNQSSDELQLSMGNAMFVKEQLSLLDRFTEDAKRLYGSEAFATDFQDSAAAKKLINDYVKNGTRGKITDLIKDLDSQTMMVLVNYIFFKAKWEMPFDPQDTHQSRFYLSKKKWVMVPMMSLHHLTIPYFRDEELSCTVVELKYTGNASALFILPDQDKMEEVEAMLLPETLKRWRDSLEFREIGELYLPKFSISRDYNLNDILLQLGIEEAFTSKADLSGITGARNLAVSQVVHKAVLDVFEEGTEASAATAVKITLLSALVETRTIVRFNRPFLMIIVPTDTQNIFFMSKVTNPKQA
modifications: 125I label
half life in mouse circulation ([2]; i.v. lateral tail vein, injected alone, estimated): several hours
organs with predominant radioactivity (tissue distribution) [3]: bladder and kidney
